Assay results: the supplement of paper PMC9170038

System: MS2 coat protein
Assay: apparent KD of MS2 coat protein; designed switch direction (-1 OFF switch, 1 ON switch): -1; higher = weaker reporter binding
Procedure, shortened: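 Normalised cluster fluorescence was curve-fitted, and each design's median over clusters is its apparent KD. Before this, SNAP-549-labelled MS2 coat protein was titrated from 0.7 or 1.5 nM, doubling to 3 µM, over RNA switches transcribed on Illumina chips by stalled E. coli RNA polymerase. Titrations had no input, 200 uM small-molecule ligand, or an oligonucleotide input, and steps lasted 0.8–1.5 h (lowest) to 10–20 min (highest).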

[1] = Eterna round: R95, input ligand: microRNA oligo, concentration not stated
[2] = input ligand: microRNA oligo, concentration not stated

Sequence	apparent KD of MS2 coat protein [1] [nM]	apparent KD of MS2 coat protein (input ligand: FMN 200 uM) [nM]	apparent KD of MS2 coat protein (input ligand: none) [nM]	apparent KD of MS2 coat protein [2] [nM]	apparent KD of MS2 coat protein (Eterna round: R95, input ligand: FMN 200 uM) [nM]	apparent KD of MS2 coat protein (Eterna round: R95, input ligand: none) [nM]
UGCAUGCUAGGAUAUACGGGACAUUAGGGUUCGUUGUAUGGACAUGAGGAUCACCCAUGUAGAAGGAGCGUGCU [Mod5 of JL-ex2-2.15 mat747 mod] (puzzle: Exclusion 2)	26					
UGCAUGGUAGGAUAUACGGAACAUUAGGGUUUGUUAUGUGGACAUGAGGAUCACCCAUGUAGAAGGGCCGUGCU [JL-ex2-2.15 mat747 mod] (puzzle: Exclusion 2)	40.4					
UGCAUGUGAGGAUAUGUACCUGAGUGCUUUGCGCUCAGGAAACAGAAGGCACAUGAGGAUCACCCAUGUGAAAA [jl-ex4-4.46 ViennaUCT mod] (Eterna round: R97, puzzle: Exclusion 4)		74.1	208			
UGCGGGCUUUUGAGACCUCACAUGAGGAUCACCCAUGUGCUUGUCUUGUGGGUCGGUAGGUCGUUGGCUGACUGACG [Sensor-V1 #97] (Eterna round: R97, puzzle: Sensor, turn-off variant 1)		15.5	13.4			
UGCUACGGAGGAUAUACAUGAGGAUCACCCAUGUGAUAGAUUAUCGCGAAAGCGUAAUGUAGAAGGCCGUAGCU [jl-ex3-4.11 jl mod] (Eterna round: R97, puzzle: Exclusion 3)		556	54.4			
UGCUGACGAGGAUAUACAUGAGGAUCACCCAUGUUGGUCAAGCGACUUCGGUCGCAAUGUAGAAGGCGUCAGCA [E3/8-A5] (Eterna round: R97, puzzle: Exclusion 3)		290	513			
UGCUGACGAGGAUAUACAUGAGGAUCACCCAUGUUGGUCAAGCGACUUCGGUCGCAAUGUAGAAGGCGUCAGCU [E3/8-A6] (Eterna round: R97, puzzle: Exclusion 3)		186	395			
UGUACGAUGCGUGCUGACAUGCGUCGUGCAGCAGGUGGAACAUGAGGAUCACCCAUGUCCUCAUUUGCUCGUCUUAU [Mat - Sensor v3 - Turn-off var 2 - D21] (Eterna round: R96, puzzle: Sensor v3, turn-off variant 2)		35.1	39.1	104		
UGUACGAUGCGUGCUGACAUGCGUCGUGCAGCAGGUGGAACAUGAGGAUCACCCAUGUCCUCAUUUGCUCGUCUUAU [Mat - Sensor v3 - Turn-off var 2 - D21] (puzzle: Sensor v3, turn-off variant 2)	155				35.2	34.6
UGUCAAGCAGGAUAUGCACGUAAUAACAUGAGGAUCACCCAUGUGACCGAUUUAUAUUCUGCAGAAGGGCUUGUUU [LRO-Excl5-19-mod of Erxesoan mod by Eli Fisker] (Eterna round: R97, puzzle: Exclusion 5)		109	26.7			
UGUGUGCUGCGAGGAUAUACAUGAGGAUCACCCAUGUAAAUGUGUGAGGCUUUGCCUCACACAAUGUAGAAGGCGCAGUACACU [Mat - Exclusion NG 2 - Mod of JL - D4] (Eterna round: R96, puzzle: Exclusion NG 2)		16.9	11.6	9.63		
UGUUCGCGAGGAUAUGCAUUCGAGUCCAUUACGUGUCUGGGACUUGAGGAUCACCCAAGUAGAAGGCGUCUCAC [salish99_ex2_r4_645] (Eterna round: R97, puzzle: Exclusion 2)		115	122			
UGUUGUCGCGCAGGAUAUGUAUGAGGAUCACCCAUUAAUAAAUUUUAACCACGAGGAUCACCCGUGUAGAAGGGCGCGACAACA [pwkr exNG2 2xF5 1xFMN.17] (Eterna round: R96, puzzle: Exclusion NG 2)		36.6	33.1	19.7		
UGUUGUCGCGUAGGAUAUGGCCAACAGGCCGUAGGAUAUGGGAAACCAGAAGGACCGCCAACAGGCGAGAAGGACGGGACAACU [pwkr exNG2 2xF7 2xFMN.21] (Eterna round: R96, puzzle: Exclusion NG 2)		127	72	49.4		
UGUUGUUACGCAGGAUAUGUAUGAGGAUCACCCAUAAAACACACACUCCCAUGAGGAUCACCCAUGUAGAAGGGCGGGUUAACA [pwkr exNG2 2xF5 1xFMN.8] (Eterna round: R96, puzzle: Exclusion NG 2)		124	80.8	54.9		
UGUUGUUACGUAGGAUAUUGUCAACAGGCAGUAGGAUAUGCGAAAGCAGAAGGACCGCCAACAGGCGAGAAGGACGGGUUAACA [pwkr exNG2 2xF7 2xFMN.3] (Eterna round: R96, puzzle: Exclusion NG 2)		614	42.7	514		
UGUUGUUGCGCAGGAUAUUGCCAACAGGCAGUAGGAUAUCCGAAAGGAGAAGGACCGCCAACAGGCGAGAAGGGCGGGACAACU [pwkr exNG2 2xF7 2xFMN.12] (Eterna round: R96, puzzle: Exclusion NG 2)		93.9	64.3	44.5		

Sequence	apparent KD of MS2 coat protein [1] [nM]	apparent KD of MS2 coat protein (input ligand: FMN 200 uM) [nM]	apparent KD of MS2 coat protein (input ligand: none) [nM]	apparent KD of MS2 coat protein [2] [nM]	apparent KD of MS2 coat protein (Eterna round: R95, input ligand: FMN 200 uM) [nM]	apparent KD of MS2 coat protein (Eterna round: R95, input ligand: none) [nM]
UUAAAUCAUGUAGGAUAUGCGUGGCGAAGCUAUGCAGAAGGACAUGAGGAUCACCCAUGUUCUAGCGUCUGCGUACAGAUGCAA [JL ENG1 1.10] (Eterna round: R96, puzzle: Exclusion NG 1)		93.1	17.5	17.5		
UUAAAUCAUGUAGGAUAUGCGUUGCGAAGCGAUGCAGAAGGACAUGAGGAUCACCCAUGUGCUAGCGUCCGCGUACGGAUGCAA [Mat - Exclusion NG 1 - Mod of JL - D60] (Eterna round: R96, puzzle: Exclusion NG 1)		172	52	65.3		
UUAAAUCAUGUAGGAUAUGCUUUGCGAAGCGAGGCAGAAGGACAUGAGGAUCACCCAUGUGCUAGCGUCCGAGUACGGAUGCAA [Mat - Exclusion NG 1 - Mod of JL - D62] (Eterna round: R96, puzzle: Exclusion NG 1)		214	83.3	62.6		
UUAAUACAUGUAGGAUAUGCGUGGCGAAGCUAUGCAGAAGGACAUGAGGAUCACCCAUGUCUAUGCGUCCGCGUACGGAUGCAA [JL Eng1 1.21 mod 6] (Eterna round: R96, puzzle: Exclusion NG 1)		18.4	16.4	9.06		
UUAAUGAUUGUGAGGAUAUCGGAUAGAUAGAUAUUUGAGAAGGUACAUGAGGAUCACCCAUGUGUGAUUAGAGA [Brourd's EX4 #67] (Eterna round: R97, puzzle: Brourd's mod of Exclusion 4)		155	111			
UUAAUGUGAGGAUAUCAGGUGUGCUAGAGAACUGGUACAUCUGAGAAGGCACAUGAGGAUCACCCAUGUUCUUC [Mat - Exclusion 4 - Mod of JL - D55] (puzzle: Exclusion 4)	36.8					
UUAAUGUGAGGAUAUCAGGUGUGCUAGAGUACUGGUACAUCUGAGAAGGCACAUGAGGAUCACCCAUGUUCUUC [Mat - Exclusion 4 - Mod of JL - D54] (puzzle: Exclusion 4)	34.3					
UUAAUUAAUUAUAUAAGAUCACAUGAGGAUCACCCAUGUAUAUAGGAUAUCAGCUCGAUUAGAGCUGAGAAGGAUAUACAAUAU [ExNG3/3-B1] (Eterna round: R96, puzzle: Exclusion NG 3)		172	147	138		
UUAAUUACGGUGCUUUAACCUCACAUGAGGAUCACCCAUGUGCAGGAUAUCAGCUCGUUUAGAGCUGAGAAGGGCACUGCACCG [ExNG3/11-A2] (Eterna round: R96, puzzle: Exclusion NG 3)		13.9	13.5	8.87		
UUAAUUCUGAUUCUUGAAAUACAUGAGGAUCACCCAUGUUCACAGGAUAUUGAUUAUGGUAGUAACAAGAAGGGUGUAUCAUAU [JR_ExcNG3_Sub039] (Eterna round: R96, puzzle: Exclusion NG 3)				64.8		
UUAGAAAUGUUAGGAUAUUAAUAUUUUUUUAGUAUGAUCUACAUGAGGAUCACCCAUGUUAAUAUUAAGAAGGAACAUUUUAUU [JR_ExcNG2_Sub099] (Eterna round: R96, puzzle: Exclusion NG 2)				71.5		
UUAGAAUUGUUAGGAUAUUAAUUAUUUUUUAGUAUGAUCUACAUGAGGAUCACCCAUGUUAAAUAUAAGAAGGAACGUUUUAUU [JR_ExcNG2_Sub097] (Eterna round: R96, puzzle: Exclusion NG 2)				40.7		
UUAUACGUUGAGGAUAUGCGAAUUAGUAUAGUUGCAGAAGGCGAUACAUGAGGAUCACCCAUGUUCAUGGGCAU [LRO-Ex6-05] (puzzle: Exclusion 6)	135					
UUAUGAGAGCAGGAUAUCUUAUAUUUUUUUUAAAGAGAAGGGCUCACAUGAGGAUCACCCAUGUGGUCCUAGAU [LRO-Excl6-21-mod of 4.86 by jal] (Eterna round: R97, puzzle: Exclusion 6)		234	36.8			
UUAUUAUAUGUAGGAUAUGCAUAUUGUUGUUAUGCAGAAGGACAUGAGGAUCACCCAUGUAUAUUAUUGUUAUAUAUUAUAUAU [Title] (Eterna round: R96, puzzle: Exclusion NG 1)				20.1		
UUAUUGUAUGUAGGAUAUGCGUAUUAUUGUUAUGCAGAAGGACAUGAGGAUCACCCAUGUAUAUUAUUGUUAUAUAUUAUAUAU [Title] (Eterna round: R96, puzzle: Exclusion NG 1)		60.9	26.7	22.7		
